Measured values from US20240317847A1 (Bayer, published 2024).
Numbering of substitutions follows the chain as printed.

T1: human IL-11 (human, UniProt P20809 22-199)
T1 sequence: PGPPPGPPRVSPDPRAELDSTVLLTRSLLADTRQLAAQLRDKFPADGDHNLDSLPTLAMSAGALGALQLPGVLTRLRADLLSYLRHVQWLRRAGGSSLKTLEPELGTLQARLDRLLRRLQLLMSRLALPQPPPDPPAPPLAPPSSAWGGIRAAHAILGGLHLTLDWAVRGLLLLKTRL

T2: murine IL-11 (mouse, UniProt P47873 22-199)
T2 sequence: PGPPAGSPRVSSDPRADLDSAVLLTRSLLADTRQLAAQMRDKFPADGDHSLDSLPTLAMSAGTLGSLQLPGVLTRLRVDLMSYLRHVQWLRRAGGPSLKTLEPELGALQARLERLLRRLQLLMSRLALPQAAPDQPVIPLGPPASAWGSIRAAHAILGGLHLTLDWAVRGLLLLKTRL

T3: cynomolgus IL-11 (cynomolgus, UniProt P20808 22-199)
T3 sequence: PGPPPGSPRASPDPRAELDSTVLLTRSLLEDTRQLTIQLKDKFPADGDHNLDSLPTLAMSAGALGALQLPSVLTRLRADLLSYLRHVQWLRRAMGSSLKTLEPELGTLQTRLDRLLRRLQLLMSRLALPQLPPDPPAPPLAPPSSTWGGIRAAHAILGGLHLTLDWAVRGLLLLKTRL

T4: rat IL-11 (rat, UniProt Q99MF5 22-199)
T4 sequence: T2 sequence with S50N, L84F, G94A, V137A, I138V

B1: TPP-29528 (antibody, mouse IgG1)
heavy: EVQLLESGGGLVQPGGSLRLSCAASGFTFSSYGMHWVRQAPGKGLEWVAVISYDGSYKYYADSVKGRFTISRDNSKNTLYLQMNSLRAEDTAVYYCAAGVPDYWGQGTLVTVSSAKTTPPSVYPLAPGSAAQTNSMVTLGCLVKGYFPEPVTVTWNSGSLSSGVHTFPAVLQSDLYTLSSSVTVPSSTWPSETVTCNVAHPASSTKVDKKIVPRDCGCKPCICTVPEVSSVFIFPPKPKDVLTITLTPKVTCVVVDISKDDPEVQFSWFVDDVEVHTAQTQPREEQFNSTFRSVSELPIMHQDWLNGKEFKCRVNSAAFPAPIEKTISKTKGRPKAPQVYTIPPPKEQMAKDKVSLTCMITDFFPEDITVEWQWNGQPAENYKNTQPIMDTDGSYFVYSKLNVQKSNWEAGNTFTCSVLHEGLHNHHTEKSLSHSPGK
light: QSVLTQPPSASGTPGQRVTISCSGSSSNIGSDYDVHWYQQLPGTAPKLLIYSNEERPSGVPDRFSGSKSGTSASLAISGLRSEDEADYYCSAWDSSLSGPVFGGGTKLTVLGQPKSSPSVTLFPPSSEELETNKATLVCTITDFYPGVVTVDWKVDGTPVTQGMETTQPSKQSNNKYMASSYLTLTARAWERHSSYSCQVTHEGHTVEKSLSRADCS
notes: mIgG1, Lambda
B2: TPP-29519 (antibody, mouse IgG1)
heavy: QVQLVESGGGVVQPGRSLRLSCAASGFTFSHYDMHWVRQAPGKGLEWVAVISYHGSVKFYADSVKGRFTISRDNSKNTLYLQMNSLRAEDTAVYYCARTPGFHFDYWGQGTLVTVSSAKTTPPSVYPLAPGSAAQTNSMVTLGCLVKGYFPEPVTVTWNSGSLSSGVHTFPAVLQSDLYTLSSSVTVPSSTWPSETVTCNVAHPASSTKVDKKIVPRDCGCKPCICTVPEVSSVFIFPPKPKDVLTITLTPKVTCVVVDISKDDPEVQFSWFVDDVEVHTAQTQPREEQFNSTFRSVSELPIMHQDWLNGKEFKCRVNSAAFPAPIEKTISKTKGRPKAPQVYTIPPPKEQMAKDKVSLTCMITDFFPEDITVEWQWNGQPAENYKNTQPIMDTDGSYFVYSKLNVQKSNWEAGNTFTCSVLHEGLHNHHTEKSLSHSPGK
light: QSVLTQPPSASGTPGQRVTISCSGSSSNIGSNYVSWYQQLPGTAPKLLIYYDDLRPSGVPDRFSGSKSGTSASLAISGLRSEDEADYYCSAWDDSLSGVVFGGGTKLTVLGQPKSSPSVTLFPPSSEELETNKATLVCTITDFYPGVVTVDWKVDGTPVTQGMETTQPSKQSNNKYMASSYLTLTARAWERHSSYSCQVTHEGHTVEKSLSRADCS
notes: mIgG1, Lambda

Legend:
human IL-11 [1] = biological target: T1, human IL-11; experiment: cell-based or functional assay
murine IL-11 [2] = biological target: T2, murine IL-11; experiment: cell-based or functional assay
cynomolgus IL-11 [3] = biological target: T3, cynomolgus IL-11; experiment: cell-based or functional assay
rat IL-11 [4] = biological target: T4, rat IL-11; experiment: cell-based or functional assay
human IL-11 [5] = biological target: T1, human IL-11; experiment: SPR (Biacore), 37 C, antibody captured via anti-Fc, IL-11 as analyte
Method: (§1) To assess the binding kinetics and affinity of anti-IL-11 bispecific antibodies as well as their species cross-reactivity profile, binding assays were conducted using surface plasmon resonance (SPR). […] Antibodies were captured either via anti-human Fc IgGs (“Human antibody capture kit”, Order No. BR100839, Cytiva) or via anti-mouse Fc IgGs (“Mouse antibody capture kit, Order No. BR100383, Cytiva) covalently amine coupled to a Series S CM5 sensor chip (Cytiva) depending on the isotype. The amine coupling was carried out according to the manufacturer's instructions using 1-ethyl-3-(3-dimethylaminopropyl) carbodiimide hydrochloride (EDC), N-hydroxysuccinimide (NHS) and ethanolamine HCl, pH 8.5 (“Amine Coupling Kit” BR-1000-50, Cytiva.). Human, mouse, cynomolgus or rat IL-11 was used as analyte at several dilutions within the concentration range from 0.05-200 nM. For binding assays with only one concentration 200 nM IL-11 was used. The sensor surface was regenerated with glycine pH 1.7 after each antigen injection. Obtained sensorgrams were double referenced (subtraction of reference flow cell signal and buffer injection) and were fitted to a 1:1 Langmuir binding model to derive kinetic data using the Biacore T200 Evaluation software or the Biacore Insight software.
(§2) If no value is reported, there was either no binding or very low binding and multiphasic binding behavior.

murine IL-11 [6] = biological target: T2, murine IL-11; experiment: as above
Method: as §1, §2

cynomolgus IL-11 [7] = biological target: T3, cynomolgus IL-11; experiment: as above
Method: as §1, §2

rat IL-11 [8] = biological target: T4, rat IL-11; experiment: as above
Method: as §1, §2

murine IL-11 [9] = biological target: T2, murine IL-11; experiment: Tri-complex ELISA, mIL-11 + mIL-11Ra-Fc + mgp130-Fc, inhibition of complex formation

Efficacy (%), Stat3 reporter gene assay (human IL-11 [1]) [%]	Efficacy (%), Stat3 reporter gene assay (murine IL-11 [2]) [%]	IC50, Stat3 reporter gene assay (murine IL-11 [2]) [nM]	Efficacy (%), Stat3 reporter gene assay (cynomolgus IL-11 [3]) [%]	IC50, Stat3 reporter gene assay (cynomolgus IL-11 [3]) [nM]	Efficacy (%), Stat3 reporter gene assay (rat IL-11 [4]) [%]	IC50, Stat3 reporter gene assay (rat IL-11 [4]) [nM]	Kd (human IL-11 [5]) [nM]	Kd (murine IL-11 [6]) [nM]	Kd (cynomolgus IL-11 [7]) [nM]	Kd (rat IL-11 [8]) [nM]	Efficacy (%) (murine IL-11 [9])	IC50 (murine IL-11 [9]) [nM]	IC50, Stat3 reporter gene assay (human IL-11 [1]) [nM]	Binder
81.2	96.9	0.89	87.8	0.44	89.9	1.8	0.34	0.23	0.2	0.33	94.7	0.6		B1
100	101	1.2	99.2	0.89	99.7	1	0.01	0.0035	0.61	0.023	81.3	0.14	1.8	B2
